The record followed here is paper PMC7591906, “pHLIP ICG for delineation of tumors and blood flow during fluorescence-guided surgery” (Scientific Reports, 2020).

Data set [1] relates to implanted tumors. Briefly: Fluorescence-guided resection of tumors, dose finding. The note with it: tail vein, doses 0.5 to 2.5 mg/kg, resection at 24 and 48 h, Stryker SPY-PHI. Format: in vivo, mice. The protocol:
Targeting of murine and human tumors was shown in 8 different tumor models in athymic female nude mice (strain Hsd Athymic Nude-Foxn1nu) ranging in age from 5 to 6 weeks (obtained from Envigo RMS, Inc). The following tumors were established by subcutaneous injection of 1 x 10^6 cells/0.1 ml/flank in flanks of athymic nude mice: HeLa (humans cervical adenocarcinoma), M4A4 (human epithelial carcinoma), 4T1 (murine breast tumor), A549 (human lung carcinoma), LLC (murine Lewis Lung carcinoma), UM-UC3 (human urinary bladder cancer), and 4 x 10^6 cells/0.1 ml/flank of LNCaP tumor (human prostate cancer). Human MDA-MB-231 (breast adenocarcinoma) tumors were established by injections of 1 x 10^6 cells/0.05 ml in the mammary fat pad. […] Finally, surgery was carried out under fluorescence-guidance to remove tumor and to image the tumor bed using the Stryker SPY-PHI handheld clinical imaging system.

A short description of data set [2]: Single-dose and 7-days repeat i.v. toxicity with TK in Beagle dogs (GLP). Format: in vivo. The note with it: for AUC(0-t) / C0: 2.16 mg/kg, daily i.v. bolus 2.16 mg/kg. Here is the method: The objectives of this GLP study, performed at CRL, were to determine the potential toxicity of pHLIP ICG, when given by single dose i.v. injection or once daily (i.v. injections) for 7 days in dogs, and to evaluate the potential reversibility of any findings following the single dose injection. In addition, toxicokinetic characteristics of pHLIP ICG were examined.
The following parameters and end points were evaluated in the study: mortality, clinical observations, body weights, food consumption, ophthalmology and electrocardiology assessments, clinical pathology parameters (hematology, coagulation, clinical chemistry, and urinalysis), toxicokinetic parameters, gross necropsy findings, organ weights, and histopathological examinations.

Data set [3] is described as follows: Imaging of blood vessels in mice. Format: in vivo, athymic female nude mice. The note with it: 2.5 nmol single tail vein injection, NIR imaging of leg and ear, five animals.
Procedure: Single tail vein administrations of 2.5 nmol of ICG-Cys or pHLIP ICG in sterile PBS or PBS with 5% DMSO or 5% Ethanol (vol:vol) (volume of the injection was 100 μl) were given to athymic female nude mice (strain Hsd Athymic Nude-Foxn1nu) ranging in age from 5 to 6 weeks (obtained from Envigo RMS Inc). Mice were under gas anesthesia, and imaging of mouse leg and ear was performed immediately and at different time points (from 5 min till 120 min) after administration of ICG-Cys or pHLIP ICG using the Stryker 1558 AIM clinical imaging system with L10 AIM Light Source, 1588 AIM Camera and a 10 mm scope and a Novadaq imaging system. Five animals per construct were used in the study.

Read-outs that look alike come from different tables or passages of the source. Peptide text beside a SMILES is read from it. * marks the point of attachment. X1 = CC1(C)C(/C=C/C=C/C=C/C=C2/N(CCCCCC(=O)NCCN3C(=O)CC(*)C3=O)c3ccc4ccccc4c3C2(C)C)=[N+](CCCCS(=O)(=O)[O-])c2ccc3ccccc3c21

As for `CC(C)C[C@H](NC(=O)[C@H](Cc1ccc(O)cc1)NC(=O)[C@H](C)NC(=O)[C@H](CCCNC(=N)N)NC(=O)[C@H](Cc1c[nH]c2ccccc12)NC(=O)[C@@H]1CCCN1C(=O)[C@H](CC(N)=O)NC(=O)[C@H](CCC(N)=O)NC(=O)[C@H](CC(=O)O)NC(=O)[C@H](CC(=O)O)NC(=O)[C@H](CSC1CC(=O)N(CCNC(=O)CCCCCN2/C(=C/C=C/C=C/C=C/C3=[N+](CCCCS(=O)(=O)[O-])c4ccc5ccccc5c4C3(C)C)C(C)(C)c3c2ccc2ccccc32)C1=O)NC(=O)[C@H](C)N)C(=O)N[C@@H](CC(=O)O)C(=O)N[C@@H](CC(C)C)C(=O)N[C@@H](CC(C)C)C(=O)N[C@@H](Cc1ccccc1)C(=O)N1CCC[C@H]1C(=O)N[C@H](C(=O)N[C@@H](CC(=O)O)C(=O)N[C@H](C(=O)N[C@@H](CC(C)C)C(=O)N[C@@H](CC(C)C)C(=O)N[C@@H](CC(C)C)C(=O)N[C@@H](CC(=O)O)C(=O)N[C@@H](CC(C)C)C(=O)N[C@@H](CC(C)C)C(=O)N[C@@H](Cc1c[nH]c2ccccc12)C(=O)N[C@@H](C)C(=O)O)[C@@H](C)O)[C@@H](C)O` (stereo partly shown) [pHLIP ICG] (H-AC(X1)DDQNPWRAYLDLLFPTDTLLLDLLWA-OH), the “Minimal dose sufficient for successful visualization of tumors” value in data set [1] worked out at 0.5 mg/kg. Besides, the Clinical chemistry changes entry in data set [2] (2.16 mg/kg/day i.v. for 7 days, males and females, non-adverse) was “minimal decreases in cholesterol”. The AUC(0-t) in data set [2] (Beagle, dog, in vivo, iv, mean, read-out: AUCTlast, day 1) stood at 65400 ng·h/mL; in data set [2] (Beagle, dog, in vivo, iv, mean, read-out: AUCTlast, day 7), 72300 ng·h/mL. In addition, the C0 was determined as 38400 ng/mL in data set [2] (Beagle, dog, in vivo, iv, mean, read-out: C0, day 1) and 42700 ng/mL in data set [2] (Beagle, dog, in vivo, iv, mean, read-out: C0, day 7). Besides, the Cmax in data set [2] (both sexes, Beagle, dog, in vivo, iv, 2.16 mg/kg/day for 7 days, mean, males and females, read-out: Cmax at NOAEL) amounted to 40300 ng/mL. For the same molecule, the NOAEL entry in data set [2] (males and females, 7 days repeated i.v. administration) was “above 2.16 mg/kg/day”. In data set [2] (single i.v. bolus 0.063, 1.08, 2.16 mg/kg or once daily for 7 days at 2.16 mg/kg/day), the Overall toxicity finding result is “did not adversely affect the overall health or condition of the animals”. Moreover, the “Time for which blood vessels are clearly revealed” value in data set [3] was “up to 2 h”.

One may read the Cmax as the highest concentration seen after dosing.
